Results published in patent US20050064507.

Assays:
[1] = system: T1, ADD2 peptide KKKFRTPSFLKKSKK (SEQ ID NO:95)
T1 sequence: KKKFRTPSFLKKSKK

[2] = system: T2, AKAP12 peptide AGWRKKTSFRKPKED (SEQ ID NO:99)
T2 sequence: AGWRKKTSFRKPKED

[3] = system: T3, ANK1 peptide AQIVKRASLKRGKQ (SEQ ID NO:90)
T3 sequence: AQIVKRASLKRGKQ

[4] = system: T4, ARHGAP4 peptide AGPLRKSSLKKGGRL (SEQ ID NO:98)
T4 sequence: AGPLRKSSLKKGGRL

[5] = system: T5, ARHGAP6 peptide DGQKRKKSLRKKLD (SEQ ID NO:92)
T5 sequence: DGQKRKKSLRKKLD

[6] = system: T6, ASIP peptide KKRSSKKEASMKKVVRP (SEQ ID NO:97)
T6 sequence: KKRSSKKEASMKKVVRP

[7] = system: T7, CACNA1C peptide RGFLRSASLGRRASFHLE (SEQ ID NO:96)
T7 sequence: RGFLRSASLGRRASFHLE

[8] = system: T8, CHRM1 peptide RKIPKRPGSVHRTPSRQ (SEQ ID NO:83)
T8 sequence: RKIPKRPGSVHRTPSRQ

[9] = system: T9, CREB1 peptide EILSRRPSYRKILND (SEQ ID NO:106)
T9 sequence: EILSRRPSYRKILND

[10] = system: T10, DGKI peptide NRKKKRTSFKRKA (SEQ ID NO:79)
T10 sequence: NRKKKRTSFKRKA

[11] = system: T11, DGKZ peptide KKKKRASFKRKSSKKG (SEQ ID NO:77)
T11 sequence: KKKKRASFKRKSSKKG

[12] = system: T12, EBNA1BP2 peptide KRPGKKGSNKRPGKR (SEQ ID NO:112)
T12 sequence: KRPGKKGSNKRPGKR

[13] = system: T13, ERN1 peptide KLAVGRHSFSRRSGV (SEQ ID NO:94)
T13 sequence: KLAVGRHSFSRRSGV

[14] = system: T14, FLJ20574 peptide GENVLKKSMKSRVKG (SEQ ID NO:113)
T14 sequence: GENVLKKSMKSRVKG

[15] = system: T15, GABRB2 peptide QKKSRLRRRASQLKI (SEQ ID NO:84)
T15 sequence: QKKSRLRRRASQLKI

[16] = system: T16, KCNH2 peptide RQRKRKLSFRRRTDKD (SEQ ID NO:86)
T16 sequence: RQRKRKLSFRRRTDKD

[17] = system: T17, LIMK2 peptide KATTKKRTLRKNDRK (SEQ ID NO:108)
T17 sequence: KATTKKRTLRKNDRK

[18] = system: T18, MACMARCKS peptide KKPFKLSGLSFKRNRKE (SEQ ID NO:88)
T18 sequence: KKPFKLSGLSFKRNRKE

[19] = system: T19, MAP3K14 peptide WKGKRRSKARKKRK (SEQ ID NO:100)
T19 sequence: WKGKRRSKARKKRK

[20] = system: T20, MARCKS peptide KKKKKRFSFKKSFKL (SEQ ID NO:80)
T20 sequence: KKKKKRFSFKKSFKL

[21] = system: T21, MARCKS peptide KKKRFSFKKSFKLSGFSFKK (SEQ ID NO:111)
T21 sequence: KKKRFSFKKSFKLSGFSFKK

[22] = system: T22, MLK3 peptide HVRRRRGTFKRSKLRARD (SEQ ID NO:76)
T22 sequence: HVRRRRGTFKRSKLRARD

[23] = system: T23, MYBPC3 peptide LLKKRDSFRTPRDSKLE (SEQ ID NO:103)
T23 sequence: LLKKRDSFRTPRDSKLE

[24] = system: T24, NCF1 peptide GAPPRRSSIRNAH (SEQ ID NO:101)
T24 sequence: GAPPRRSSIRNAH

[25] = system: T25, NEURL peptide ALRRPSLRREADD (SEQ ID NO:105)
T25 sequence: ALRRPSLRREADD

[26] = system: T26, NF1 peptide AGSFKRNSIKKIV (SEQ ID NO:102)
T26 sequence: AGSFKRNSIKKIV

[27] = system: T27, NR4A3 peptide KEVVRTDSLKGRRGR (SEQ ID NO:109)
T27 sequence: KEVVRTDSLKGRRGR

[28] = system: T28, PARIS1 peptide EYLERRASRRRAV (SEQ ID NO:89)
T28 sequence: EYLERRASRRRAV

[29] = system: T29, PLEC1 peptide KRERKTSSKSSVRKRR (SEQ ID NO:81)
T29 sequence: KRERKTSSKSSVRKRR

[30] = system: T30, PLEK peptide KFARKSTRRSIRLPE (SEQ ID NO:78)
T30 sequence: KFARKSTRRSIRLPE

[31] = system: T31, PPP1R14A peptide QKRHARVTVKYDRRE (SEQ ID NO:107)
T31 sequence: QKRHARVTVKYDRRE

[32] = system: T32, PRKCA peptide RFARKGSLRQKNV (SEQ ID NO:85)
T32 sequence: RFARKGSLRQKNV

[33] = system: T33, PRKCM peptide VHYTSKDTLRKRHYWR (SEQ ID NO:91)
T33 sequence: VHYTSKDTLRKRHYWR

[34] = system: T34, PSCD2 peptide AARKKRISVKKKQEQ (SEQ ID NO:93)
T34 sequence: AARKKRISVKKKQEQ

[35] = system: T35, SDPR peptide EKIKRSSLKKVDSLKK (SEQ ID NO:104)
T35 sequence: EKIKRSSLKKVDSLKK

[36] = system: T36, SPTBN4 peptide EGGDRRASGRRK (SEQ ID NO:110)
T36 sequence: EGGDRRASGRRK

[37] = system: T37, SYTL4 peptide RQGKRKTSIKRDTVNPL (SEQ ID NO:87)
T37 sequence: RQGKRKTSIKRDTVNPL

[38] = system: T38, p164-RhoGEF peptide PRLIRRGSKKRPAR (SEQ ID NO:82)
T38 sequence: PRLIRRGSKKRPAR

| Substance | in vitro phosphorylation (% of best substrate) [1] | in vitro phosphorylation (% of best substrate) [2] | in vitro phosphorylation (% of best substrate) [3] | in vitro phosphorylation (% of best substrate) [4] | in vitro phosphorylation (% of best substrate) [5] | in vitro phosphorylation (% of best substrate) [6] | in vitro phosphorylation (% of best substrate) [7] | in vitro phosphorylation (% of best substrate) [8] | in vitro phosphorylation (% of best substrate) [9] | in vitro phosphorylation (% of best substrate) [10] | in vitro phosphorylation (% of best substrate) [11] | in vitro phosphorylation (% of best substrate) [12] | in vitro phosphorylation (% of best substrate) [13] | in vitro phosphorylation (% of best substrate) [14] | in vitro phosphorylation (% of best substrate) [15] | in vitro phosphorylation (% of best substrate) [16] | in vitro phosphorylation (% of best substrate) [17] | in vitro phosphorylation (% of best substrate) [18] | in vitro phosphorylation (% of best substrate) [19] | in vitro phosphorylation (% of best substrate) [20] | other results |
| --- | --- | --- | --- | --- | --- | --- | --- | --- | --- | --- | --- | --- | --- | --- | --- | --- | --- | --- | --- | --- | --- |
| AKT1 | 9 | 6 | 3 | 7 | 2 | 10 | 32 | 6 | 12 | 7 | 8 | 3 | 9 | 9 | 10 | 39 | 1 | 10 | 3 | 6 | in vitro phosphorylation (% of best substrate) [21]: 3; in vitro phosphorylation (% of best substrate) [22]: 100; in vitro phosphorylation (% of best substrate) [23]: 7; in vitro phosphorylation (% of best substrate) [24]: 12; in vitro phosphorylation (% of best substrate) [25]: 12; in vitro phosphorylation (% of best substrate) [26]: 6; in vitro phosphorylation (% of best substrate) [27]: 2; in vitro phosphorylation (% of best substrate) [28]: 1; in vitro phosphorylation (% of best substrate) [29]: 9; in vitro phosphorylation (% of best substrate) [30]: 2; in vitro phosphorylation (% of best substrate) [31]: 3; in vitro phosphorylation (% of best substrate) [32]: 10; in vitro phosphorylation (% of best substrate) [33]: 5; in vitro phosphorylation (% of best substrate) [34]: 7; in vitro phosphorylation (% of best substrate) [35]: 2; in vitro phosphorylation (% of best substrate) [36]: 1; in vitro phosphorylation (% of best substrate) [37]: 7; in vitro phosphorylation (% of best substrate) [38]: 9 |
| PKA | 2 | 1 | 3 | 21 | 18 | 1 | 86 | 2 | 30 | 3 | 4 | 0 | 5 | 0 | 63 | 87 | 0 | 3 | 2 | 3 | in vitro phosphorylation (% of best substrate) [21]: 3; in vitro phosphorylation (% of best substrate) [22]: 69; in vitro phosphorylation (% of best substrate) [23]: 3; in vitro phosphorylation (% of best substrate) [24]: 100; in vitro phosphorylation (% of best substrate) [25]: 84; in vitro phosphorylation (% of best substrate) [26]: 5; in vitro phosphorylation (% of best substrate) [27]: 1; in vitro phosphorylation (% of best substrate) [28]: 4; in vitro phosphorylation (% of best substrate) [29]: 2; in vitro phosphorylation (% of best substrate) [30]: 5; in vitro phosphorylation (% of best substrate) [31]: 2; in vitro phosphorylation (% of best substrate) [32]: 81; in vitro phosphorylation (% of best substrate) [33]: 3; in vitro phosphorylation (% of best substrate) [34]: 1; in vitro phosphorylation (% of best substrate) [35]: 1; in vitro phosphorylation (% of best substrate) [36]: 1; in vitro phosphorylation (% of best substrate) [37]: 64; in vitro phosphorylation (% of best substrate) [38]: 10 |
